# According to patent US20070060518A1:
# How the values were obtained:
# [1] = molecular target: HLA-A*0201 class I monomer on avidin-coated plates (iTopia Epitope Discovery System) (human); experiment: iTopia affinity assay (FIGS. 27A and 27B)
# [2] = molecular target: HLA-A*0201 class I monomer on avidin-coated plates (iTopia Epitope Discovery System) (human); experiment: iTopia off-rate assay (FIG. 26)
fold reduction of ED50 against the native peptide [1] [fold],t1/2 [2] [h],Substance
> 4,–,PRAME425-433 S425F L433Nle analog (peptide)
–,17.2,PRAME425-433 analog with Nva at PΩ (peptide)
